Laboratory results: the supplement of paper PMC10724198
± gives the standard deviation of the averaged measurements.

What was measured:
[1] = tested on: Saccharomyces cerevisiae; assay: protein stability index of tFT-peptide fusion (C-terminal peptide) (PSI (0-1 scale)); higher = more stable (slower turnover); settings: genetic background: wild type; temperature: 30 C
[2] = tested on: Saccharomyces cerevisiae; assay: as above
Method: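 MPS profiling in S. cerevisiae of the tFT-X12 degron library: putative degron peptides plus stable controls, 12 aa, fused to the C-terminus of a sfGFP-mCherry timer. Cells are FACS-sorted into 8 mCherry/sfGFP bins and deep-sequenced. PSI runs from 0 (unstable) to 1 (stable). Backgrounds are wild type, das1Δ and doa10Δ at 30 °C, and wild type, das1Δ, cdc34-1 and cdc53-1 at 37 °C; 2-3 technical replicates each.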

[3] = genetic background: cdc34-1, temperature: 37 C
[4] = genetic background: cdc53-1, temperature: 37 C
[5] = genetic background: das1 deletion, temperature: 30 C
[6] = genetic background: das1 deletion, temperature: 37 C
[7] = genetic background: doa10 deletion, temperature: 30 C
[8] = genetic background: wild type, temperature: 30 C
[9] = genetic background: wild type, temperature: 37 C
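Note: PSI is a weighted mean of sequencing reads over stability bins, variants kept only with over 10 reads, mCherry proximal and sfGFP distal, peptide attached via GGGS linker.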

Sequence: MRLQLTFSILLF
- protein stability index [1]: 0.389 ± 0.019
- protein stability index [2, 3]: 0.353 ± 0.036
- protein stability index [2, 4]: 0.43 ± 0.034
- protein stability index [2, 5]: 0.378 ± 0.021
- protein stability index [2, 6]: 0.393 ± 0.0059
- protein stability index [2, 7]: 0.4027 ± 0.0029
- protein stability index [2, 8]: 0.37 ± 0.021
- protein stability index [2, 9]: 0.3598 ± 0.0024

Sequence: MSRALSVLVVVA
- protein stability index [1]: 0.312 ± 0.012
- protein stability index [2, 3]: 0.176 ± 0.029
- protein stability index [2, 4]: 0.211 ± 0.011
- protein stability index [2, 5]: 0.213 ± 0.036
- protein stability index [2, 6]: 0.323 ± 0.0062
- protein stability index [2, 7]: 0.172 ± 0.0091
- protein stability index [2, 8]: 0.22 ± 0.019
- protein stability index [2, 9]: 0.287 ± 0.029

Sequence: MTLYSFSSALLA
- protein stability index [1]: 0.3535 ± 0.0027
- protein stability index [2, 3]: 0.413 ± 0.045
- protein stability index [2, 4]: 0.464 ± 0.013
- protein stability index [2, 5]: 0.316 ± 0.014
- protein stability index [2, 6]: 0.461 ± 0.002
- protein stability index [2, 7]: 0.27 ± 0.038
- protein stability index [2, 8]: 0.276 ± 0.016
- protein stability index [2, 9]: 0.423 ± 0.0074

Sequence: NCVDRFKGQKRM
- protein stability index [1]: 0.505 ± 0.031
- protein stability index [2, 3]: 0.655 ± 0.055
- protein stability index [2, 4]: 0.723 ± 0.029
- protein stability index [2, 5]: 0.64 ± 0.027
- protein stability index [2, 6]: 0.711 ± 0.0013
- protein stability index [2, 7]: 0.422 ± 0.021
- protein stability index [2, 8]: 0.491 ± 0.023
- protein stability index [2, 9]: 0.6341 ± 0.0052

Sequence: NFFIQFHNLLFP
- protein stability index [1]: 0.718 ± 0.0086
- protein stability index [2, 3]: 0.754 ± 0.017
- protein stability index [2, 4]: 0.765 ± 0.037
- protein stability index [2, 5]: 0.664 ± 0.0089
- protein stability index [2, 6]: 0.769 ± 0.022
- protein stability index [2, 7]: 0.653 ± 0.017
- protein stability index [2, 8]: 0.6712 ± 0.0036
- protein stability index [2, 9]: 0.774 ± 0.027

Sequence: NGLVCVFILSWY
- protein stability index [1]: 0.375 ± 0.031
- protein stability index [2, 3]: 0.202 ± 0.022
- protein stability index [2, 4]: 0.261 ± 0.1
- protein stability index [2, 5]: 0.234 ± 0.038
- protein stability index [2, 6]: 0.437 ± 0.011
- protein stability index [2, 7]: 0.21 ± 0.012
- protein stability index [2, 8]: 0.238 ± 0.033
- protein stability index [2, 9]: 0.375 ± 0.0047

Sequence: NLFVFLSYLFNV
- protein stability index [1]: 0.422 ± 0.022
- protein stability index [2, 3]: 0.603 ± 0.051
- protein stability index [2, 4]: 0.66 ± 0.0075
- protein stability index [2, 5]: 0.563 ± 0.013
- protein stability index [2, 6]: 0.7168 ± 0.0052
- protein stability index [2, 7]: 0.336 ± 0.035
- protein stability index [2, 8]: 0.34 ± 0.014
- protein stability index [2, 9]: 0.484 ± 0.013

Sequence: NLVCLDPFLVFV
- protein stability index [1]: 0.581 ± 0.22
- protein stability index [2, 3]: 0.582 ± 0.027
- protein stability index [2, 4]: 0.612 ± 0.011
- protein stability index [2, 5]: 0.478 ± 0.018
- protein stability index [2, 6]: 0.613 ± 0.0077
- protein stability index [2, 7]: 0.475 ± 0.026
- protein stability index [2, 8]: 0.472 ± 0.025
- protein stability index [2, 9]: 0.5835 ± 0.003

Sequence: NMVSMVVVIFGV
- protein stability index [1]: 0.275 ± 0.015
- protein stability index [2, 3]: 0.248 ± 0.014
- protein stability index [2, 4]: 0.37 ± 0.1
- protein stability index [2, 5]: 0.23 ± 0.039
- protein stability index [2, 6]: 0.437 ± 0.024
- protein stability index [2, 7]: 0.196 ± 0.021
- protein stability index [2, 8]: 0.24 ± 0.02
- protein stability index [2, 9]: 0.386 ± 0.016

Sequence: NNQIQKKMYQTN
- protein stability index [1]: 0.35 ± 0.022
- protein stability index [2, 3]: 0.585 ± 0.022
- protein stability index [2, 4]: 0.778 ± 0.018
- protein stability index [2, 5]: 0.667 ± 0.019
- protein stability index [2, 6]: 0.737 ± 0.012
- protein stability index [2, 7]: 0.179 ± 0.025
- protein stability index [2, 8]: 0.198 ± 0.05
- protein stability index [2, 9]: 0.473 ± 0.051

Sequence: NWAIEIRSVKIV
- protein stability index [1]: 0.261 ± 0.025
- protein stability index [2, 3]: 0.642 ± 0.066
- protein stability index [2, 4]: 0.701 ± 0.022
- protein stability index [2, 5]: 0.619 ± 0.04
- protein stability index [2, 6]: 0.7084 ± 0.007
- protein stability index [2, 7]: 0.148 ± 0.0038
- protein stability index [2, 8]: 0.183 ± 0.021
- protein stability index [2, 9]: 0.303 ± 0.015

Sequence: NYCVFLSYLLFC
- protein stability index [1]: 0.301 ± 0.0096
- protein stability index [2, 3]: 0.362 ± 0.044
- protein stability index [2, 4]: 0.424 ± 0.025
- protein stability index [2, 5]: 0.318 ± 0.027
- protein stability index [2, 6]: 0.502 ± 0.0072
- protein stability index [2, 7]: 0.205 ± 0.012
- protein stability index [2, 8]: 0.215 ± 0.033
- protein stability index [2, 9]: 0.3961 ± 0.0034

Sequence: NYFRPWLIFHKC
- protein stability index [1]: 0.38 ± 0.059
- protein stability index [2, 3]: 0.684 ± 0.021
- protein stability index [2, 4]: 0.749 ± 0.012
- protein stability index [2, 5]: 0.632 ± 0.05
- protein stability index [2, 6]: 0.742 ± 0.014
- protein stability index [2, 7]: 0.2644 ± 0.00051
- protein stability index [2, 8]: 0.309 ± 0.023
- protein stability index [2, 9]: 0.547 ± 0.0037

Sequence: PALPQPMNPAPP
- protein stability index [1]: 0.725 ± 0.032
- protein stability index [2, 3]: 0.656 ± 0.043
- protein stability index [2, 4]: 0.722 ± 0.0094
- protein stability index [2, 5]: 0.657 ± 0.014
- protein stability index [2, 6]: 0.727 ± 0.015
- protein stability index [2, 7]: 0.667 ± 0.022
- protein stability index [2, 8]: 0.66 ± 0.016
- protein stability index [2, 9]: 0.6734 ± 0.0059

Sequence: PALVVALLASVL
- protein stability index [1]: 0.485 ± 0.011
- protein stability index [2, 3]: 0.584 ± 0.018
- protein stability index [2, 4]: 0.646 ± 0.039
- protein stability index [2, 5]: 0.505 ± 0.022
- protein stability index [2, 6]: 0.60007 ± 0.00036
- protein stability index [2, 7]: 0.347 ± 0.015
- protein stability index [2, 8]: 0.386 ± 0.029
- protein stability index [2, 9]: 0.504 ± 0.0057

Sequence: PCLPLTPMWTLF
- protein stability index [1]: 0.493 ± 0.0072
- protein stability index [2, 3]: 0.713 ± 0.034
- protein stability index [2, 4]: 0.789 ± 0.021
- protein stability index [2, 5]: 0.678 ± 0.0076
- protein stability index [2, 6]: 0.7793 ± 0.0028
- protein stability index [2, 7]: 0.3716 ± 0.0014
- protein stability index [2, 8]: 0.42 ± 0.022
- protein stability index [2, 9]: 0.611 ± 0.018

Sequence: PFFVLFSLAFLF
- protein stability index [1]: 0.279 ± 0.07
- protein stability index [2, 3]: 0.375 ± 0.018
- protein stability index [2, 4]: 0.439 ± 0.033
- protein stability index [2, 5]: 0.302 ± 0.04
- protein stability index [2, 6]: 0.4886 ± 0.00064
- protein stability index [2, 7]: 0.2698 ± 0.0019
- protein stability index [2, 8]: 0.278 ± 0.017
- protein stability index [2, 9]: 0.422 ± 0.015

Sequence: PLATSLIGLFVV
- protein stability index [1]: 0.433 ± 0.039
- protein stability index [2, 3]: 0.663 ± 0.098
- protein stability index [2, 4]: 0.716 ± 0.013
- protein stability index [2, 5]: 0.522 ± 0.028
- protein stability index [2, 6]: 0.661 ± 0.021
- protein stability index [2, 7]: 0.273 ± 0.018
- protein stability index [2, 8]: 0.298 ± 0.032
- protein stability index [2, 9]: 0.4673 ± 0.0014

Sequence: PLLLFFFPRLLF
- protein stability index [1]: 0.475 ± 0.024
- protein stability index [2, 3]: 0.579 ± 0.046
- protein stability index [2, 4]: 0.62 ± 0.025
- protein stability index [2, 5]: 0.535 ± 0.027
- protein stability index [2, 6]: 0.6481 ± 0.0026
- protein stability index [2, 7]: 0.39 ± 0.0054
- protein stability index [2, 8]: 0.382 ± 0.019
- protein stability index [2, 9]: 0.559 ± 0.025
